Results from publication doi:10.1101/2023.12.08.570772 (bioRxiv, 2023).

B1: Full length MAGEA4 WT (N-terminal histidine tag) (natural protein)
chain: MSSEQKSQHCKPEEGVEAQEEALGLVGAQAPTTEEQEAAVSSSSPLVPGTLEEVPAAESAGPPQSPQGASALPTTISFTCWRQPNEGSSSQEEEGPSTSPDAESLFREALSNKVDELAHFLLRKYRAKELVTKAEMLERVIKNYKRCFPVIFGKASESLKMIFGIDVKEVDPASNTYTLVTCLGLSYDGLLGNNQIFPKTGLLIIVLGTIAMEGDSASEEEIWEELGVMGVYDGREHTVYGEPRKLLTQDWVQENYLEYRQVPGSNPARYEFLWGPRALAETSYVKVLEHVVRVNARVRIAYPSLREAALLEEEEGV

Columns and labels:
[1] = target: His-tagged full length (FL) wildtype (WT) RAD18 (human, UniProt Q9NS91 1-495); test: cross-linking
Sequence of His-tagged full length (FL) wildtype (WT) RAD18 (Q9NS91 whole entry): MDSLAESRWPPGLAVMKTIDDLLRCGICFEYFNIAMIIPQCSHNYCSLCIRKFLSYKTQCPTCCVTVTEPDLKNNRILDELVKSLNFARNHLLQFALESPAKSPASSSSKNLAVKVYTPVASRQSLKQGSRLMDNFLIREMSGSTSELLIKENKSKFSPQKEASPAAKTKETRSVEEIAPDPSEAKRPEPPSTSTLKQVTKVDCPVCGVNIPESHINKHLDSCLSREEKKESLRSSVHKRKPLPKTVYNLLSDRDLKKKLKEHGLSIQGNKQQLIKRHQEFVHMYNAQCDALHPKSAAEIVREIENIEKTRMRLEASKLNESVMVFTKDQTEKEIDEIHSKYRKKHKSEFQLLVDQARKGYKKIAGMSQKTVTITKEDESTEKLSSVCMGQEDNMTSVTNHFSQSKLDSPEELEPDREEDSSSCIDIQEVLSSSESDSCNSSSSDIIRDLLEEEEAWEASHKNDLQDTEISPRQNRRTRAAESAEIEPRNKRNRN

[2] = target: B1; test: ITC
[3] = target: T1, Full length MAGEA4 M161D (human, UniProt P43358 1-317, M161D); test: ITC
T1 sequence: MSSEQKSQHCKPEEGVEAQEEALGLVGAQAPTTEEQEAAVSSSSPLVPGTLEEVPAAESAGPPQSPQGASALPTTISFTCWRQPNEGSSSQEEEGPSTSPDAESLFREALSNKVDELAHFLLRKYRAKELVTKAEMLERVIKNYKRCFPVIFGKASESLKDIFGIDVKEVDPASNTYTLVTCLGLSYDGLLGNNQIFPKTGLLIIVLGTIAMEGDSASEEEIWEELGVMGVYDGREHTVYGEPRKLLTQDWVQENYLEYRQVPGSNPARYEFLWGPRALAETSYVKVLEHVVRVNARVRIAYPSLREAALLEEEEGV

B1: binds [1].

Binder SKYRKKHKSEFQLLVDQARKGYKKIAG [RAD18 R6BD peptide (27 amino acid peptide containing amino acids 340-366 of RAD18)] has a Kd [2] of 405 nM and a Kd [3] of 1660 nM.
